B2: human CTC1 (subunit of the purified recombinant CST complex) (natural protein)
chain: MAAGRAQVPSSEQAWLEDAQVFIQKTLCPAVKEPNVQLTPLVIDCVKTVWLSQGRNQGSTLPLSYSFVSVQDLKTHQRLPCCSHLSWSSSAYQAWAQEAGPNGNPLPREQLLLLGTLTDLSADLEQECRNGSLYVRDNTGVLSCELIDLDLSWLGHLFLFPRWSYLPPARWNSSGEGHLELWDAPVPVFPLTISPGPVTPIPVLYPESASCLLRLRNKLRGVQRNLAGSLVRLSALVKSKQKAYFILSLGRSHPAVTHVSIIVQVPAQLVWHRALRPGTAYVLTELRVSKIRGQRQHVWMTSQSSRLLLLKPECVQELELELEGPLLEADPKPLPMPSNSEDKKDPESLVRYSRLLSYSGAVTGVLNEPAGLYELDGQLGLCLAYQQFRGLRRVMRPGVCLQLQDVHLLQSVGGGTRRPVLAPCLRGAVLLQSFSRQKPGAHSSRQAYGASLYEQLVWERQLGLPLYLWATKALEELACKLCPHVLRHHQFLQHSSPGSPSLGLQLLAPTLDLLAPPGSPVRNAHNEILEEPHHCPLQKYTRLQTPSSFPTLATLKEEGQRKAWASFDPKALLPLPEASYLPSCQLNRRLAWSWLCLLPSAFCPAQVLLGVLVASSHKGCLQLRDQSGSLPCLLLAKHSQPLSDPRLIGCLVRAERFQLIVERDVRSSFPSWKELSMPGFIQKQQARVYVQFFLADALILPVPRPCLHSATPSTPQTDPTGPEGPHLGQSRLFLLCHKEALMKRNFCVPPGASPEVPKPALSFYVLGSWLGGTQRKEGTGWGLPEPQGNDDNDQKVHLIFFGSSVRWFEFLHPGQVYRLIAPGPATPMLFEKDGSSCISRRPLELAGCASCLTVQDNWTLELESSQDIQDVLDANKSLPESSLTDLLSDNFTDSLVSFSAEILSRTLCEPLVASLWMKLGNTGAMRRCVKLTVALETAECEFPPHLDVYIEDPHLPPSLGLLPGARVHFSQLEKRVSRSHNVYCCFRSSTYVQVLSFPPETTISIPLPHIYLAELLQGGQSPFQATASCHIVSVFSLQLFWVCAYCTSICRQGKCTRLGSTCPTQTAISQAIIRLLVEDGTAEAVVTCRNHHVAAALGLCPREWASLLDFVQVPGRVVLQFAGPGAQLESSARVDEPMTMFLWTLCTSPSVLRPIVLSFELERKPSKIVPLEPPRLQRFQCGELPFLTHVNPRLRLSCLSIRESEYSSSLGILASSC
B3: human STN1 (subunit of the purified recombinant CST complex) (natural protein)
chain: MQPGSSRCEEETPSLLWGLDPVFLAFAKLYIRDILDMKESRQVPGVFLYNGHPIKQVDVLGTVIGVRERDAFYSYGVDDSTGVINCICWKKLNTESVSAAPSAARELSLTSQLKKLQETIEQKTKIEIGDTIRVRGSIRTYREEREIHATTYYKVDDPVWNIQIARMLELPTIYRKVYDQPFHSSALEKEEALSNPGALDLPSLTSLLSEKAKEFLMENRVQSFYQQELEMVESLLSLANQPVIHSASSDQVNFKKDTTSKAIHSIFKNAIQLLQEKGLVFQKDDGFDNLYYVTREDKDLHRKIHRIIQQDCQKPNHMEKGCHFLHILACARLSIRPGLSEAVLQQVLELLEDQSDIVSTMEHYYTAF

Columns and labels:
Assay in all cases: cryo-EM structure
[1] = molecular target: B2
[2] = molecular target: B3
cryo-EM structure = molecular target: the molecule itself

B1: human TEN1 (subunit of the purified recombinant CST complex) (natural protein)
chain: MMLPKPGTYYLPWEVSAGQVPDGSTLRTFGRLCLYDMIQSRVTLMAQHGSDQHQVLVCTKLVEPFHAQVGSLYIVLGELQHQQDRGSVVKARVLTCVEGMNLPLLEQAIREQRLYKQERGGSQ
[1]
  binding result: binds
[2]
  stoichiometry N: 1

## B2
cryo-EM structure
  binding result: binds

## B3
[1]
  stoichiometry N: 1
